Experiment in all cases: cell-based or functional assay
Assay [1] has as its target high affinity (IL2Ra/b/g) IL2 receptor on YT/STAT5-Luc/hIL2Ra reporter cells (human; human (human T/NK cell leukemia YT cell line)) (UniProt P01589).
Assay [2] has as its target low affinity (IL2Rb/g) IL2 receptor on YT/STAT5-Luc/IL2Ra KO reporter cells (human (human T/NK cell leukemia YT cell line)) (UniProt P14784).
In assay [3] the target is high affinity (IL2Ra/b/g) IL2 receptor on YT/STAT5-Luc/hIL2Ra reporter cells (human; human (human T/NK cell leukemia YT cell line)) (UniProt P01589). This is another data set of the same source.
Assay [4] has as its target low affinity (IL2Rb/g) IL2 receptor on YT/STAT5-Luc/IL2Ra KO reporter cells (human (human T/NK cell leukemia YT cell line)) (UniProt P14784). This is another data set of the same source.

Where two headings read alike, the source gives them in different places.

UniProt P14784, sequence (P14784 27-551, chain 1 of 2): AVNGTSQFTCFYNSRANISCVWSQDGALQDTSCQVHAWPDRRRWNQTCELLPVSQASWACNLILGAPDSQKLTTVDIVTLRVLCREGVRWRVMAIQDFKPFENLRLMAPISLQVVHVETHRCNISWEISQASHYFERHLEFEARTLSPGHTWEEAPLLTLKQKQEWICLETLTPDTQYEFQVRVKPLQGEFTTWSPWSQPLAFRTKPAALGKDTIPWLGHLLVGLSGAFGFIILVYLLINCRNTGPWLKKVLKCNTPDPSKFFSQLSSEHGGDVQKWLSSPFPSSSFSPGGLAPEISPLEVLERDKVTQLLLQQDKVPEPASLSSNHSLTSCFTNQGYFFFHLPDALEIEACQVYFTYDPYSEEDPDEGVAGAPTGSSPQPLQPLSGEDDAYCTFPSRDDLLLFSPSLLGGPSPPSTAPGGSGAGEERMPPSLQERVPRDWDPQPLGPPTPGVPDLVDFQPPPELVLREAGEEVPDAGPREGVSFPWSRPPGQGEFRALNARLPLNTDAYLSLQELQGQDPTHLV
UniProt P14784, sequence (P31785 23-369, chain 2 of 2, further chain): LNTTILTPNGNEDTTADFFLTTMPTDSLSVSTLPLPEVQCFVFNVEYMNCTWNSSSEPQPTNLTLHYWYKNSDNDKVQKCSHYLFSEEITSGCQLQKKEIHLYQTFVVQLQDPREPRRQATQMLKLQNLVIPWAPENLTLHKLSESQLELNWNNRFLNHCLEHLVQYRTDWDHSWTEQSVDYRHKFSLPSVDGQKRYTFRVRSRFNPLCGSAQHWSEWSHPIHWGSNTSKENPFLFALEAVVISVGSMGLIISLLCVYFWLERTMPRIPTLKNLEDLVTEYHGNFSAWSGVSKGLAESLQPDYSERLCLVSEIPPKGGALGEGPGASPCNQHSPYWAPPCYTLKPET
UniProt P01589, sequence (P01589 22-272, chain 1 of 3): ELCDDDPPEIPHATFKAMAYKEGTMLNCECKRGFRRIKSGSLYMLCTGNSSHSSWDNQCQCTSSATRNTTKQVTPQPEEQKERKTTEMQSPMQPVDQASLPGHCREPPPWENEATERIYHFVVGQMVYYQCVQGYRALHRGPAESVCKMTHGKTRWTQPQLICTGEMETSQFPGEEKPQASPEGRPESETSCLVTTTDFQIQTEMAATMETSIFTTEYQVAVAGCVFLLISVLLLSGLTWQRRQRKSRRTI
UniProt P01589, sequence (P14784 27-551, chain 2 of 3, further chain): as the sequence (P14784 27-551, chain 1 of 2) above
UniProt P01589, sequence (P31785 23-369, chain 3 of 3, further chain): as the sequence (P31785 23-369, chain 2 of 2, further chain) above

In assay [1], “IL2(E68C)-mmh (REGN7184), dimeric human IL-2 (E68C) with a C-terminal myc-myc-hexahistidine (mmh) tag (ligand)” displayed an EC50, STAT5-luciferase reporter assay, YT/Stat5-Luc/hIL2Ra cells (M (unit not given)) of 5.63e-10 and a fold less potency than IL2-mmh (REGN7183), STAT5-luciferase reporter assay, YT/STAT5-Luc/hIL2Ra cells of 34 fold. Besides, the EC50, STAT5-luciferase reporter assay, YT/Stat5-Luc/IL2Ra KO cells in assay [2] was determined as 846 pM.

For the molecule IL2-Fc (REGN8189) (Fc fusion), the EC50, STAT5-luciferase reporter assay, YT/Stat5-Luc/IL2Ra KO cells in assay [2] amounted to 542 pM.

“IL2-Fc (REGN8189) (Fc fusion; in M (unit assumed))” displayed an EC50, STAT5-luciferase reporter assay, YT/Stat5-Luc/hIL2Ra cells (M (unit not given)) in assay [1] of 1.69e-11.

The molecule “IL2-mmh (REGN7183), monomeric human IL-2 with a C-terminal myc-myc-hexahistidine (mmh) tag (ligand)” had an EC50, STAT5-luciferase reporter assay, YT/Stat5-Luc/IL2Ra KO cells in assay [2] of 622 pM.

The molecule “IL2-mmh (REGN7183), monomeric human IL-2 with a C-terminal myc-myc-hexahistidine (mmh) tag (ligand; in M (unit assumed))” yielded an EC50, STAT5-luciferase reporter assay, YT/Stat5-Luc/hIL2Ra cells (M (unit not given)) in assay [1] of 1.65e-11.

B1: IL2(3m)-Fc (REGN8190) (Fc fusion)
chain: APTSSSTKKTQLQLEHLLLDLQMILNGINNYKNPKLTRMLTAKFAMPKKATELKHLQCLEEELKPLEEVLNGAQSKNFHLRPRDLISNINVIVLELKGSETTFMCEYADETATIVEFLNRWITFCQSIISTLTGGGGSESKYGPPCPPCPAPPVAGPSVFLFPPKPKDTLMISRTPEVTCVVVDVSQEDPEVQFNWYVDGVEVHNAKTKPREEQFNSTYRVVSVLTVLHQDWLNGKEYKCKVSNKGLPSSIEKTISKAKGQPREPQVYTLPPSQEEMTKNQVSLTCLVKGFYPSDIAVEWESNGQPENNYKTTPPVLDSDGSFFLYSRLTVDKSRWQEGNVFSCSVMHEALHNHYTQKSLSLSLGK
B1: in assay [3], the EC50, STAT5-luciferase reporter assay, YT/Stat5-Luc/hIL2Ra cells (M (unit not given)) is 5.17e-11 and the fold less potency than IL2-Fc (REGN8189), STAT5-luciferase reporter assay, YT/STAT5-Luc/hIL2Ra cells amounted to 3 fold. For the same molecule, in assay [4], the EC50, STAT5-luciferase reporter assay, YT/Stat5-Luc/IL2Ra KO cells worked out at 628 pM.

Values taken from US20240067690A1.
